Experimental data: patent US20030008355A1 (published 2003)

T1: carcinoembryonic antigen (CEA) (UniProt P06731 35-685, limits assumed)
T1 construct: Antigen coated on microtitre plates
T1 sequence (looked up): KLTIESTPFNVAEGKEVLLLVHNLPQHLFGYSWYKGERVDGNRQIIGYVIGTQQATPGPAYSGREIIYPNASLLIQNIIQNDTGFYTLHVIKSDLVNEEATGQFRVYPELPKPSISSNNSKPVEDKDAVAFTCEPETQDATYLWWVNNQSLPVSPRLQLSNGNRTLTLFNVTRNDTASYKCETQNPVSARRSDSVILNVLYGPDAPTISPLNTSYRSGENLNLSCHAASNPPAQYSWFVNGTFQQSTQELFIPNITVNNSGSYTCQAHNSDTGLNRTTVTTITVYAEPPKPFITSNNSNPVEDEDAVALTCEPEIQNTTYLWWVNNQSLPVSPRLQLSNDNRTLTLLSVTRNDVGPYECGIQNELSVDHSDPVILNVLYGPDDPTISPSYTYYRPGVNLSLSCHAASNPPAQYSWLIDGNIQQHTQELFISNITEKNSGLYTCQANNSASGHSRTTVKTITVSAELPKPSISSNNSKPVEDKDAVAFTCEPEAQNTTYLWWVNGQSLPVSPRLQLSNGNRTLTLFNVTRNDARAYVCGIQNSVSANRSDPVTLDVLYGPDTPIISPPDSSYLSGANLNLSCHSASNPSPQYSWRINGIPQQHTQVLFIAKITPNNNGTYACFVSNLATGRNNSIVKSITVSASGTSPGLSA

B1: mouse-derived anti-carcinoembryonic antigen whole antibody A5B7 (antibody, from another filing, V domains shown)
VH: EVKLVESGGGLVQPGGSLRLSCATSGFTFTDYYMNWVRQPPGKALEWLGFIGNKANGYTTEYSASVKGRFTISRDKSQSILYLQMNTLRAEDSATYYCTRDRGLRFYFDYWGQGTTLTVSS
VL: QTVLSQSPAILSASPGEKVTMTCRASSSVTYIHWYQQKPGSSPKSWIYATSNLASGVPARFSGSGSGTSYSLTISRVEAEDAATYYCQHWSSKPPTFGGGTKLEIK
B2: 6H9 single-chain Fv (scFv)
scFv: QVQLQESGPSLVKPSQTLSLTCTVSGFSLTKYGVSWVRQAPGKALEWLGGVSSGALTAYNTALQSRLSVTRDTSKSQFSLSLSSVTTEDTAIYYCAKSVNGDSVPYGLDYWSPGLLLTVSSGGGGSGGGGSGGGGSQDVLTQPSSVSGSLGQRVSITCSGSSSNIGGNAYVGWYQQVPGSAPRLLISATTDRASGIPDRFSGSRSGNTATLTISSLQAEDEADYYCASYQSTYSGVFGSGTRLTVLGHHHHHH
notes: VH-(Gly4Ser)3-VL with C-terminal hexa-histidine tag, expressed in E. coli HB 2151; also called 6H9 SFv; sFv
B3: 6H9 whole antibody (sheep monoclonal antibody secreted by hybridoma 6H9) (antibody, V domains shown)
VH: QVQLQESGPSLVKPSQTLSLTCTVSGFSLTKYGVSWVRQAPGKALEWLGGVSSGALTAYNTALQSRLSVTRDTSKSQFSLSLSSVTTEDTAIYYCAKSVNGDSVPYGLDYWSPGLLLTVSS
VL: QDVLTQPSSVSGSLGQRVSITCSGSSSNIGGNAYVGWYQQVPGSAPRLLISATTDRASGIPDRFSGSRSGNTATLTISSLQAEDEADYYCASYQSTYSGVFGSGTRLTVLG
notes: Whole sheep monoclonal antibody

Key:
[1] = biological target: carcinoembryonic antigen (CEA) (UniProt P06731); test: acid-wash EIA on CEA-coated plates, citrate pH 2.5, 1 h 37 C
[2] = biological target: T1, carcinoembryonic antigen (CEA); test: acid-wash EIA on CEA-coated plates, citrate pH 2.0, 1 h 37 C
Description: (§1) Carcinoembryonic antigen (CEA)-coated microtitre plates were prepared as described previously. Single-chain Fv samples (6H9) were diluted to a range of concentrations between 1 ng/ml and 100 ng/ml in PBS at pH 7.2 containing 1% bovine serum albumin (BSA). 100 μl samples were added to the microtitre plate wells and incubated for 1 hour at 37° C. The plates were then washed, 200 μl per well of citrate added, and the plates incubated for 1 hour at 37° C. In this case, the acid preparations were made using a stock solution of 100 mM citrate diluted to pH values of 4.0, 3.5, 3.0, 2.5 and 2.0 in the reaction mixture. PBS at pH 7.2 was used as a reference control. The plates were then washed and 100 μl per well of mouse anti-tetra-histidine antibody (Qiagen) (100 ng/ml diluted in PBS at pH 7.2 with 1% BSA) added and incubated for 1 hour at 37° C. […] The plates were then washed, treated with PNPP as described previously and the absorbance measured using a spectrophotometer at 405 nm.
(§2) As a control for acid resistance, sFv samples were incubated with PBS at pH 7.2 to generate an EIA response curve for the SFv samples. In the linear region, a concentration of 10-20 ng/ml of the SFv sample gave an absorbance (A₄₀₅) of 1.0-1.5 and was therefore used to determine the amount of antibody bound in the acid washed samples as a percentage of the amount bound in the reference sample.

[3] = biological target: T1, carcinoembryonic antigen (CEA); test: acid-wash EIA on CEA-coated plates, citrate pH 2.5, 1 h 37 C
Description: as §1, §2

[4] = biological target: T1, carcinoembryonic antigen (CEA); test: acid-wash EIA on CEA-coated plates, citrate pH 3.5, 1 h 37 C
Description: as §1, §2

[5] = biological target: T1, carcinoembryonic antigen (CEA); test: acid-wash EIA on CEA-coated plates, HCl pH 2, 1 h 37 C, against standard EIA
Description: Maxisorb assay plates (NUNC) were coated with CEA (0.4 μg/ml in phosphate-buffered saline at pH 7.2), 100 μl per well and left overnight at 4° C. The plates were then washed three times using phosphate buffered saline at pH 7.2 with 0.01% Tween 20 detergent. Any remaining reactive sites on the plates were blocked by the addition of 200 μl per well of 0.2% fat-free milk protein in PBS at pH 7.2 at 37° C. for ½ hour. The plates were then washed in PBS as described above and 45 μl of the antibody samples were added to the wells of the plates. The samples were incubated for one hour at 37° C. and then washed as described previously. Bound antibody was detected using alkaline phosphatase-conjugated donkey anti-sheep antibody (Sigma A5187 diluted 1/5000 in PBS at pH 7.2 with 1% BSA). The plates were then washed and 100 μl per well of PNPP (Sigma N2770) solution was added. Absorbance was measured using a spectrophotometer at 405 nm with phosphate buffered saline as a control.
Coating and binding of antibody samples was as described for the standard EIA above. However, after incubation with the antibody samples, the plates were washed and 200 μl per well of HCl (10 mM Stock solution) at pH 2 was added for one hour at 37° C. After three washes the antibody remaining bound to antigen was detected using alkaline phosphatase-conjugated donkey anti-sheep antibody and PNPP as described above. […]

percent antigen binding retained at pH 2.5 relative to pH 7.2 [1]	percent antigen binding retained at pH 2.0 relative to pH 7.2 [2]	percent antigen binding retained at pH 2.5 relative to pH 7.2 [3]	percent antigen binding retained at pH 3.5 relative to pH 7.2 [4]	retention of binding in acid-washed EIA (pH 2) relative to non-acid washed EIA [5]	Molecule
< 5%					mouse-derived anti-carcinoembryonic antigen single-chain Fv MFE (scFv)
< 5%					B1
	> 50%	> 60%	> 70%		B2
	> 50%	> 60%	> 70%	> 50%	B3
